One molecule from patent US20220193270A1, “METHOD FOR ENHANCING TUMOR GROWTH” (MINERVA BIOTECHNOLOGIES CORPORATION, priority 2013, published 2022) can be followed below.

For one assay, the system named is T47D breast cancer cells. As to the kind of experiment: T47D xenograft engraftment, cells mixed with Matrigel plus NME7, with or without daily NME7 injections. It counts as in vivo, nu/nu mice. The method, then: Example 1: Immune-compromised nu/nu mice between 40-60 days old were implanted with 90-day estrogen release pellets to foster the engraftment and growth of breast tumor cells. Human T47D breast cancer cells were mixed 1:2 with Matrigel then injected into the flank of the mouse (4 million each mouse), six (6) mice per group. In a second group, cancer cells were mixed with Matrigel at the same 1:2 ratio (100 uL cells: 200 ul Matrigel) except, human recombinant NME7-AB was added into the cell/Matrigel mix to a final NME7 concentration of 16 nM (6 mice). Of those six (6) mice, three (3) were randomly chosen to receive NME7 injections daily (100 uL at 32 nM), after day 14. […] After Day 14, the mice whose tumor cells were mixed with NME7 were also injected once daily with human recombinant NME7. […] After Day 14, half of the mice were also injected once daily with human recombinant NME7. […] Dashed lines indicate mice that were also injected with NME7 after Day 14.

Assay [1] relates to DU145 MUC1-positive prostate cancer cells. As to the kind of experiment: RT-PCR of cancer stem cell markers in DU145 cells cultured with agent. It counts as cell-based, human. The following applies: after 9-10 passages; FIG. 11b. As to the method:
(§1) Example 3: Agents that are able to maintain stem cells in the naïve state transform cancer cells into cancer stem cells wherein only a small number of cells are required for engraftment. Cancer cells were cultured according to standard practice. In the controls, the cancer cells were cultured in their normal media: RPMI for T47D breast cancer cells, DU145 and PC3 prostate cancer cells. However, the test agents, recombinant proteins human NME1 dimers, bacterial HSP593 NME1 dimers, human NME7-AB and 2i, were added to a serum-free minimal media to eliminate potential interference from the many growth factors and cytokines in serum.
(§2) To this serum-free minimal media, rhNME1 (aka NM23) was added to a final concentration of 8 nM, or bacterial HSP593 recombinant NME1 was added to a final concentration of 8 nM, or rhNME7-AB was added to a final concentration of 4 nM, or 2i inhibitors, PD0325901 and CHIR99021, which inhibit the MAP kinase pathway and GSK3, respectively, were added to a final concentration of 3 μM and 1 μM.
Example 3b: Prostate cancer cells were also cultured as described above with either human NME1 dimers, bacterial NME1 dimers, NME7-AB, or 2i inhibitors. […] Thus, the RT-PCR measurements of the cancer stem cell markers are lower than that of the T47D cells, which could be explained by it being the measure of transformed cells and non-transformed cells. In the case of breast cancer cells, we were able to isolate the fully transformed cancer stem cells by collecting the floating cells, but were not able to do so here. DU145 MUC1-positive prostate cancer cells were cultured in RPMI media as a control and in minimal media to which was added recombinant human NME1/NM23 dimers, bacterial HSP593 dimers, or human NME7-AB. […] There was about a 2-8-fold increase in OCT4, MUC1 and CDH1/E-cadherin. However, after serial passaging under these same culture conditions, the increases in expression of cancer stem cell markers became more pronounced. We reasoned that serial passaging allowed more time for cells to transform since we could not rapidly collect floating cells.

Assay [2] concerns PC3 MUC1-negative prostate cancer cells. As to the kind of experiment: RT-PCR of stem cell markers in PC3 cells cultured with agent. It counts as cell-based, human. As to the method:
as §1, §2
PC3 MUCl-negative prostate cancer cells were also tested for their ability to transform into cancer stem cells when cultured in agents that are able to maintain stem cells in the naïve state. PC3 cells were cultured as described above with either human NME1 dimers, bacterial NME1 dimers or NME7-AB. […] Thus, the RT-PCR measurements of the cancer stem cell markers may be lower because measurements will be the average of transformed cells and non-transformed cells.

The subject of a further assay is T47D cancer stem cells. The assay can be described thus: Tumor initiation and metastasis from low numbers of NME7-AB-induced T47D cancer stem cells, with or without daily NME7-AB injections. It counts as in vivo, nu/nu female mice. As to the method:
T47D breast cancer cells were cultured as described in Example 3a above. After 7-10 days culture in minimal media to which was added rhNME7-AB to a final concentration of 4 nM, floating cells were collected. […] The floating cells were counted and re-suspended in PBS. The NME7-induced cancer stem cells were mixed 1:2 with reduced growth factor Matrigel; that is 2 parts Matrigel to 1 part cells. A range of ratios of cancer cells to NME7 or the injection schedule of NME7 is expected to vary from one mouse strain to another and from one tumor type to another.
The cancer stem cells were implanted in the flank of female nu/nu mice which had previously been implanted with a 90-day release estrogen pellet in the shoulder area. Four (4) groups of six (6) mice each were implanted with either 50, 100, 1,000 or 10,000 T47D cancer stem cells. In each case the total volume injected into each mouse was 100 uL. Half of the mice in each group were injected daily with 200 uL of recombinant human NME7-AB in the flank near but not at the cancer stem cell implantation site.
Animals were monitored for food intake and body weight, which were normal and stable. Two (2) independent and blinded tumor measurements were taken once a week and recorded.

Assay [3] deals with T1, PSMGFR peptide of the MUC1* extracellular domain (Homo sapiens, UniProt P15941).
T1 sequence (P15941 1110-1154 limits assumed): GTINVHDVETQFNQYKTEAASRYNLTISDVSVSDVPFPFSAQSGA
The assay can be described thus: ELISA binding to PSMGFR peptide. The following applies: FIG. 47, FIG. 48b. An excerpt:
We made recombinant human NM23, also called NME1, dimers that bear the […] mutation that stabilizes dimers. We previously reported that human NME1 dimers bind to the PSMGFR portion of the extracellular domain of the MUC1* receptor (Smagghe et al. 2013). We also made recombinant human NME7-AB that is secreted as a monomer. […] We made recombinant bacterial NME proteins found in Halomonas Sp. 593 (‘HSP 593’) and in Porphyromonas gingivalis W83 that had high sequence homology to human NME1 and had been reported to exist in dimer state (FIG. 48 and FIG. 49). HSP 593 expressed well in E. coli and a significant portion was present as a dimer, which population was then purified by FPLC and confirmed the dimer population (FIG. 48a).

B1: NME7-AB: recombinant human NME7 variant (A and B domains, SEQ ID NO:39) secreted as a monomer; 'NME7' in the experiments means this protein (protein)
chain: MEKTLALIKPDAISKAGEIIEIINKAGFTITKLKMMMLSRKEALDFHVDHQSRPFFNELIQFITTGPIIAMEILRDDAICEWKRLLGPANSGVARTDASESIRALFGTDGIRNAAHGPDSFASAAREMELFFPSSGGCGPANTAKFTNCTCCIVKPHAVSEGLLGKILMAIRDAGFEISAMQMFNMDRVNVEEFYEVYKGVVTEYHDMVTEMYSGPCVAMEIQQNNATKTFREFCGPADPEIARHLRPGTLRAIFGKTKIQNAVHCTDLPEDGLLEVQYFFKILDN
modifications: Human NME7-AB
notes: 'NME7' in the experiments means this protein
Consider B1, for which the results for the engraftment rate with T47D breast cancer cells (cancer cells mixed with NME7 prior to implantation alone) and in the assay with T47D breast cancer cells (mixed with NME7 prior to implantation plus NME7 injections into the animal after cell implantation) were 33% and 66%, respectively. Also, in the assay on T47D breast cancer cells (of six (6) implanted mice, T47D mixed with Matrigel and NME7 (two of six with standard Matrigel)), the “implanted mice showing tumor growth characteristic of engraftment” value stood at 4. For the same molecule, in the assay on T47D breast cancer cells (tumors mixed with NME7 prior to implantation (57% without it)), the “average growth increase from Day 7 until day 21” value amounted to 144%. In assay [1], the “expression of NANOG and OCT4” value is “significant increases”. Moreover, the “increase in the expression of CDH1/E-cadherin” value in assay [1] worked out at 9 fold. Further, in assay [2] (after passage in agent, FIG. 12a), the “expression of stem cell markers SOX2, OCT4 and NANOG” value is “modest increases”. Further, the “expression of cancer stem cell or stem cell markers” value in assay [2] (serial passaging in the media, FIG. 12b) was “decreased”. Moreover, in the assay on T47D cancer stem cells (all 24 mice implanted with 50, 100, 1,000 or 10,000 NME7-induced cancer stem cells), the “mice that developed tumors” value stood at 67%. Besides, the “number of implanted cells that initiate tumors in mice” value in the assay on T47D cancer stem cells (cancer stem cells generated by culture in NME7-AB) was no more than 50 cells. Besides, the “time after which cancers metastasized” value in the assay on T47D cancer stem cells (group injected with NME7 daily) is “about 50 days”. Further, the “mice that formed tumors” value in the assay on T47D cancer stem cells (implanted with NME7-induced cancer stem cells and receiving daily injections of NME7) is 83%; in the assay with T47D cancer stem cells (implanted with NME7-induced cancer stem cells, no circulating NME7 (no daily injections)), 50%. In addition, the “tumor-bearing mice that developed cancer metastasis (multiple tumors)” value with T47D cancer stem cells (of the daily NME7-injected mice that formed tumors, by approximately Day 50) is recorded as 80%. Also, the “binding to PSMGFR portion of the MUC1* extracellular domain” value in assay [3] was “bind to and dimerize”.
